Values joined by “and” are separate entries in the source; they are usually repeats but may differ in a detail not shown here. Equal values may be shown once. No end group written: not given here.
Tests used:
[1] = biological target: T1, PaAP (Pseudomonas aeruginosa, UniProt Q02PA2, A513L/Q514V/S515P); experiment: Peptide digestion assay (overnight and time course, LC-MS/MALDI); assay type: biochemical; settings: for substrate of / degraded by PaAP (words): incubated with PaAP overnight, LC–MS or MALDI; for P0 (parent peptide, LC–MS signal): 500 μM peptide, 1 μM PaAP_T
T1 construct: PaAP (WT, residues 27–536); His6 (TEV cleavable) (N, cleaved yes); made in house; host or cells: E. coli SHuffle T7
Protocol: A variety of peptides of varying lengths and compositions were incubated with PaAP at room temperature. Assays were performed by incubating (overnight at room temperature) 500 μM of substrate (peptides) with 1 μM enzyme (PaAP) in reaction buffer (50 mM Tris, pH 8.5, 100 mM NaCl). The reactions were quenched by heating to 100 °C for 10 min followed by centrifugation at 17,000g in a benchtop centrifuge to remove precipitate. Supernatant was collected and samples were analyzed by LC–MS. Initial trial assays were carried out in the presence and absence (control) of enzyme to determine if the substrate was degraded (single or triplicate experiments). Time-course assays were performed on selected peptide substrates in triplicate. A 300 μl reaction (including 500 μM of substrate) was initiated by the addition of 1 μM enzyme. The reaction was incubated at room temperature. The reaction was quenched at set timepoints by the removal of 30 μl aliquots, which were immediately heated to 100 °C for 10 min. The samples were analyzed by LC–MS using a Xevo Q-ToF (Waters) as described below, searching for masses of all peptide breakdown products.
Peptide degradation time courses were fitted to exponential equations as follows:
P0 peptide consumption was fitted to a single exponential equation (equation (2)) with the format2 yt=y0−Plateaue^−kt+Plateau
Time courses for the formation and decay of peptide intermediates were fitted to double exponential equations (equation (3)) and single exponential equations, followed by a linear phase (4)3 yt=y0−Plateau1e^−k1t+y0−Plateau2e^−k2t+Plateau 4 yt=y0−Plateaue^−kt+vt+Plateau where y(t) is the product formed at time t, y0 − Plateau is the amplitude of the exponential phase, k is the observed rate constant for the exponential phase, y0 is the value of y at time 0, Plateau is the value of y after exponential phase, C is the offset and v is the slope of the linear phase.
Peptide samples incubated in the presence and absence of PaAP were initially analyzed by MALDI. The peptide sample (0.5 µl at 10 µM) was spotted along with matrix (0.5 µl 10 mg ml^−1 α-cyano-4-hydroxycinnamic acid in ACN/0.1% TFA (50/50, vol/vol)) on a stainless steel MALDI plate and left to dry. The sample plate was loaded into a Sciex 4800 MALDI mass spectrometer. The laser voltage was adjusted to give a good signal to noise strength, and 50 shots were acquired in a random pattern across the spot and spectra combined. The spectra were externally calibrated with Sciex Pepcal mix (range: 500–4,000 m/z).

[2] = biological target: T2, PaAP_T (P. aeruginosa aminopeptidase, C-terminal truncated) (Pseudomonas aeruginosa, UniProt Q02PA2); experiment: Inhibition of PaAP_T in the Leu-pNA aminopeptidase assay (KI, IC50); assay type: biochemical; settings: for IC50 plot data (PaAP_T activity at given peptide concentration): (S) = 2 mM, PaAP 100 nM
T2 construct: PaAP (WT, residues 27–536); His6 (TEV cleavable) (N, cleaved yes); made in house; host or cells: E. coli SHuffle T7
T2 sequence (Q02PA2 whole entry, looked up): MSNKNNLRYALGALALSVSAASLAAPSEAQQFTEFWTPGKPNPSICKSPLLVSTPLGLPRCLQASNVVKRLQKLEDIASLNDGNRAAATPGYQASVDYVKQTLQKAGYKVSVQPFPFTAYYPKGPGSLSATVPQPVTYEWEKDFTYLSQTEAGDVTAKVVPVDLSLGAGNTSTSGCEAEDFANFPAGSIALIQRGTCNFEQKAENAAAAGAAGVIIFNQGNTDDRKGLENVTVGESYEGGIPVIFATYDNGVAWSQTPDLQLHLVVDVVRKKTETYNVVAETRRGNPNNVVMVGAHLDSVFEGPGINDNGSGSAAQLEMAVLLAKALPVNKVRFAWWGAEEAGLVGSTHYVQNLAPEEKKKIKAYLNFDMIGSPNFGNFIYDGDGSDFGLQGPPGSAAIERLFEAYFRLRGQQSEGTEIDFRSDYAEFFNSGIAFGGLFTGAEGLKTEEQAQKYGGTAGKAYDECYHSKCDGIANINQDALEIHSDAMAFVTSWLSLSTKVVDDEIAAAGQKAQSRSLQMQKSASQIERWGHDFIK
Protocol: Aminopeptidase activity was determined spectrophotometrically primarily using amino Leu-pNA. Other commercially available pNA substrates (isoleucine, methionine, alanine, valine, proline, arginine, lysine and phenylalanine) were also assayed. Leu-pNA was incubated with enzyme (100 nM) in assay buffer (50 mM Tris, pH 8.5, 200 mM NaCl) at 25 °C. A pNA release caused an absorbance increase at 405 nm, monitored using a BMG Labtech plate reader. […] Data were plotted in GraphPad Prism (version 9) and the Michalis Menten equation was used for fitting.
Inhibition assays were carried out with the following peptides: linear-ERWGHDFIK (PaAP C-terminal residues), cyclic-ERWGHDFIK, N-acetylated and C-amidated ERWGHDFIK. IC50 values were determined by varying peptide concentration at a fixed substrate concentration (fixed at KM, (S) = 2 mM, PaAP concentration was 100 nM). […] KI values were determined by fitting the data to equation (1) (Morrison’s equation):1 v=1−Et+I+KI−Et+I+KI^2−4EtIKI/2Et where v is the velocity, Et is the total enzyme concentration, I is the concentration of inhibitor and KI is the equilibrium dissociation constant for the inhibitor. IC50 values increased when measured at increasing S, consistent with competitive inhibition.

T1 sequence (Q02PA2 37-516 A513L/Q514V/S515P): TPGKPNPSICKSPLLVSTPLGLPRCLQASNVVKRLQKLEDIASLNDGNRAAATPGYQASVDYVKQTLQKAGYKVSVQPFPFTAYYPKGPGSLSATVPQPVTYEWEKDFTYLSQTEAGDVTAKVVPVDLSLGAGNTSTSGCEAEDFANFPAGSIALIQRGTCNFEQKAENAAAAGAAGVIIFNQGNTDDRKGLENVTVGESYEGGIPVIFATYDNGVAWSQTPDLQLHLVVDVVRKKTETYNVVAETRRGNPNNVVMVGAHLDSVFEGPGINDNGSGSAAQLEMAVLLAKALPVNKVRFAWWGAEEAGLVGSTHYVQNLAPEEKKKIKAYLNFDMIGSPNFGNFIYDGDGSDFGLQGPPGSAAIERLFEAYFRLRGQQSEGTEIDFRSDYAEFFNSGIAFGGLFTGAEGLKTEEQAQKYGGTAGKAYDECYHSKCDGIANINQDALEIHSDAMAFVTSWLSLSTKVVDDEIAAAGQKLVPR

Substance | substrate of / degraded by PaAP (words) [1] | IC50 plot data (PaAP_T activity at given peptide concentration) ([2]; log(I) 0) | IC50 plot data (PaAP_T activity at given peptide concentration) ([2]; log(I) 0.39794) | IC50 plot data (PaAP_T activity at given peptide concentration) ([2]; log(I) 0.69897) | IC50 plot data (PaAP_T activity at given peptide concentration) ([2]; log(I) 1) | IC50 plot data (PaAP_T activity at given peptide concentration) ([2]; log(I) 1.39794) | IC50 plot data (PaAP_T activity at given peptide concentration) ([2]; log(I) 1.69897) | IC50 plot data (PaAP_T activity at given peptide concentration) ([2]; log(I) 2) | IC50 plot data (PaAP_T activity at given peptide concentration) ([2]; log(I) 2.39794) | IC50 plot data (PaAP_T activity at given peptide concentration) ([2]; log(I) -0.30103) | IC50 plot data (PaAP_T activity at given peptide concentration) ([2]; log(I) -0.60206) | IC50 plot data (PaAP_T activity at given peptide concentration) ([2]; log(I) -1) | IC50 plot data (PaAP_T activity at given peptide concentration) ([2]; log(I) -1.30103) | further results
Ac-ERWGHDFIK: N-terminally acetylated ERWGHDFIK | is not a substrate | 14.1847 and 14.0241 and 15.9398 | 10.4257 and 10.2008 and 11.7831 | 7.759 and 8.43 and 9.606 | 6.157 and 6.578 and 7.803 | 4.438 and 4.522 and 4.703 | 3.468 and 3.7992 and 3.497 | 2.457 and 2.349 and 2.539 | 1.727 and 1.944 and 1.78 | 21.8755 and 21.5663 and 25.7068 | 31.9277 and 31.253 and 35.5141 | 57.8715 and 59.5181 and 63.1727 | 96.8273 and 103.173 | IC50 relative to unmodified linear ERWGHDFIK ([2]; Leu-pNA assay): stronger inhibitor (lower IC50)
ERLGHDFIK [… peptide with W replaced by L] |  |  |  |  |  |  |  |  |  |  |  |  |  | P0 (parent peptide, LC–MS signal) ([1]; time 0 minutes): 242839 and 266621 and 225820; P0 (parent peptide, LC–MS signal) ([1]; time 5 minutes): 120859 and 126339 and 82871.9; P0 (parent peptide, LC–MS signal) ([1]; time 10 minutes): 45005.2 and 53825.2 and 41072.7; P0 (parent peptide, LC–MS signal) ([1]; time 30 minutes): 28627.8 and 28689.7 and 21100.6; P0 (parent peptide, LC–MS signal) ([1]; time 60 minutes): 29596.5 and 28748.7 and 27907.5; P0 (parent peptide, LC–MS signal) ([1]; time 90 minutes): 29084.8 and 28644.1 and 25592.5; P0 (parent peptide, LC–MS signal) ([1]; time 120 minutes): 30548.5 and 27618.8 and 28168.1; P0 (parent peptide, LC–MS signal) ([1]; time 180 minutes): 31516.5 and 29951.1 and 28383.1; P0 (parent peptide, LC–MS signal) ([1]; time 1220 minutes): 25934 and 29596.2 and 25678.6; relative rate of degradation by PaAP ([1]; time-course assay, LC–MS): degraded at a faster rate than ERWGHDFIK
ERWGHDFIK (head-to-tail): ERWGHDFIK peptide cyclized head-to-tail (head-to-tail cyclized) |  | 101.617 and 102.323 and 98.6769 | 100.735 and 102.44 and 95.9718 | 96.6774 and 96.207 and 104.322 | 101.558 and 102.323 and 97.1479 | 95.7365 and 95.8542 and 103.44 | 85.1514 and 85.6807 and 79.6236 | 68.1564 and 67.5684 and 61.9818 | 37.6478 and 35.5307 and 32.0024 | 93.6783 and 96.7951 and 93.6195 | 99.853 and 100.676 and 98.5004 | 98.7357 and 97.5007 and 102.499 | 86.6216 and 85.5631 and 74.2723 | inhibition of PaAP_T ([2]; Leu-pNA assay): very poor inhibitors
RYLGYL: casein-derived peptide (UniProt P02662 105-110, looked up, fragment) [reference compound] | capable of processing |  |  |  |  |  |  |  |  |  |  |  |  | 

Reference: publication PMC10449631 (Nature Chemical Biology, 2023)
